How the values were obtained:
[1] = target: CH235 UCA2 (unmutated common ancestor of the CH235/CH235.12 lineage), IgG (human); test: SPR; Biacore 3000; CH235 UCA2 antibody captured (200-350 RU) by goat anti-human IgG Fc immobilised on a CM3 chip; SOSIP trimers 50-750 nM in HBS-EP+ injected 5 min at 50 ul/min, 10 min dissociation; 1:1 Langmuir model with local Rmax; apparent KD, average of two measurements
[2] = target: CH235 UCA2 (unmutated common ancestor of the CH235/CH235.12 lineage), IgG; test: SPR; conditions: apparent KD, average of two measurements
[3] = target: Man5-enriched CH505TF.N279K Env on pseudovirus produced in 293S GnT1- cells (HIV-1 clade C, strain CH505 transmitted/founder); conditions: scale: fold less susceptible than the Man5-enriched double mutant
[4] = target: Man5-enriched CH505TF.G458Y Env on pseudovirus produced in 293S GnT1- cells (HIV-1 clade C, strain CH505 transmitted/founder); conditions: scale: fold less susceptible than the Man5-enriched double mutant
[5] = target: CH505TF.N279K.G458Y Env on pseudovirus produced in 293T cells (not Man5-enriched) (HIV-1 clade C, strain CH505 transmitted/founder)
[6] = target: Man5-enriched stabilized CH505TF.N279K.G458Y.SOSIP.664 Env trimer (made in 293S GnT1- cells) (HIV-1 clade C, strain CH505 transmitted/founder | HIV-1 clade A, strain BG505) (UniProt Q2N0S6)
[7] = target: Man5-enriched stabilized CH505TF.N279K.G458Y.SOSIP.664 Env trimer (made in 293S GnT1- cells) (HIV-1 clade C, strain CH505 transmitted/founder | HIV-1 clade A, strain BG505) (UniProt Q2N0S6); test: cryo-EM structure; trimer at 1 mg/ml incubated with 4-5-fold molar excess of CH235 UCA2 Fab for 30-60 minutes, 0.085 mM dodecyl-maltoside; C3 symmetry, 4.2 Å
[8] = trimer produced in Freestyle293 (293F) cells, parent: NB
[9] = trimer produced in 293S GnT1- cells

CH235 UCA2 (unmutated common ancestor of the CH235/CH235.12 lineage), IgG (human), sequence (heavy, as listed by the source, chain 1 of 2): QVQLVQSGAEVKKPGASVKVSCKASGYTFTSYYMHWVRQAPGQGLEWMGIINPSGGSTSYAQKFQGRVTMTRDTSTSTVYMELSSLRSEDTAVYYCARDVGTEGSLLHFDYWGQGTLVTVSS
CH235 UCA2 (unmutated common ancestor of the CH235/CH235.12 lineage), IgG (human), sequence (light, as listed by the source, chain 2 of 2): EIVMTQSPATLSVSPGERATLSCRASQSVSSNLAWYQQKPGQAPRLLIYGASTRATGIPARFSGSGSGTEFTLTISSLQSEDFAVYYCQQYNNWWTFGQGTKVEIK

Man5-enriched stabilized CH505TF.N279K.G458Y.SOSIP.664 Env trimer (made in 293S GnT1- cells) (from UniProt Q2N0S6 1-860) (complex)
Kd [1]: 0.009 µM

CH505TF SOSIP.664 v4.1 (293F) N279K
Kd [2, 8]: 0.154 µM

CH235 UCA2 (unmutated common ancestor of the CH235/CH235.12 lineage), IgG (antibody)
neutralization in TZM-bl cells: fold less susceptible than the Man5-enriched double mutant [3]: 92 | neutralization in TZM-bl cells: fold less susceptible than the Man5-enriched double mutant [4]: 973 | IC50 of neutralization of CH505TF.N279K.G458Y Env-pseudotyped virus that was not Man5-enriched, in TZM-bl cells [5]: 9.2 mg/L | IC50 of neutralization of Man5-enriched (293S GnT1-) CH505TF.N279K.G458Y Env-pseudotyped virus in TZM-bl cells (full-length Env on virus, not the SOSIP) [6]: 0.04 mg/L

CH235 UCA2 Fab
stoichiometry N (Fabs per Env trimer) [7]: 3

CH505TF SOSIP.664 v4.1 (293F) N279K; G458Y
Kd [2, 8]: 0.083 µM

Man5-enriched stabilized parental CH505TF SOSIP.664 Env trimer (made in 293S GnT1- cells) (from UniProt Q2N0S6) G458Y
Kd [2, 9]: 0.996 µM

Man5-enriched stabilized parental CH505TF SOSIP.664 Env trimer (made in 293S GnT1- cells) (from UniProt Q2N0S6) N279K
Kd [2, 9]: 0.028 µM

Source: article PMC6764681
